What was measured:
[1] = test system: PGE2 / human EP4 receptor in HEK293 Gα16 cells; assay: EP4 bioassay (Ca++ flux, neutralization of PGE2); type: cell-based; conditions: for IC50: EP4 assay
Protocol: The ability of anti-PGE2 antibodies and anti-PGE2 containing DVD-Ig molecules to inhibit the cellular response of PGE2 was determined in a Ca++ flux assay in HEK293 Gα16 cells stably transfected with human EP4 receptor. Cells were plated in black/clear poly-D-lysine plates, (Corning #3667, Corning, N.Y.) and incubated with Ca++-sensitive dye (Molecular Devices) for 90 minutes. Stock PGE2 (in 200 proof ethanol) was diluted with FLIPR buffer (containing 1×HBSS (Invitrogen, Carlsbad, Calif.), 20 mM HEPES (Invitrogen, Carlsbad, Calif.), 0.1% BSA (Sigma, St. Louis, Mo.) and 2.5 mM Probenecid (Sigma, St. Louis, Mo.)). Anti-PGE2 antibodies, DVD-Ig molecules or isotype matched control antibodies were also pre-diluted in FLIPR buffer. 25 μl of PGE2 or pre-incubated PGE2/antibody mixture or pre-incubated PGE2/DVD-Ig molecule mixture was added to the wells pre-plated with cells. A dose response of PGE2 was done by a serial titration of PGE2 and was determined using FLIPR1 or Tetra (Molecular Devices). EC50 was determined using GraphPad Prism 5 (GraftPad Software, La Jolla, Calif.). […] Ca++ flux was monitored using FLIPR1 and data was analyzed using GraphPad Prism 5.
The ability of anti-PGE2 antibodies and anti-PGE2 containing DVD-Ig molecules to inhibit the cellular response of PGE2 was determined in a Ca++ flux assay using stably transfected human EP4 in HEK293 Gα16 cells. Cells were plated in black/clear Poly-D-Lysine plates, (Corning #3667) and incubated with Ca++-sensitive dye (Molecular Devices) for 90 minutes. Stock PGE2 (in 200 proof ethanol) was diluted with FLIPR buffer (containing 1×HBSS, 20 mM HEPES, 0.1% BSA and 2.5 mM Probenecid). Anti-PGE2 antibodies, DVD-Ig molecules or isotype matched control antibodies were also pre-diluted in FLIPR buffer. 25 μl of PGE2 or pre-incubated PGE2/antibody mixture or pre-incubated PGE2/DVD-Ig molecule mixture was added to the wells pre-plated with cells. A dose response of PGE2 was done by a serial titration of PGE2 and was determined using FLIPR1 or Tetra (Molecular Devices). EC50 was determined using GraphPad Prism 5. […] Ca++ flux was monitored using FLIPR1 and data was analyzed using GraphPad Prism 5.

target antigen = assay: BIACORE affinity determination of parent antibodies and DVD-Ig constructs; type: binding; conditions: antigen IL-15, 25° C.
Protocol: The BIACORE assay (Biacore, Inc, Piscataway, N.J.) determines the affinity of antibodies or DVD-Ig with kinetic measurements of on-rate and off-rate constants. […] All chemicals are obtained from Biacore® AB (Uppsala, Sweden) or otherwise from a different source as described in the text. For example, approximately 5000 RU of goat anti-mouse IgG, (Fcγ), fragment specific polyclonal antibody (Pierce Biotechnology Inc, Rockford, Ill.) diluted in 10 mM sodium acetate (pH 4.5) is directly immobilized across a CM5 research grade biosensor chip using a standard amine coupling kit according to manufacturer's instructions and procedures at 25 μg/ml. Unreacted moieties on the biosensor surface are blocked with ethanolamine. Modified carboxymethyl dextran surface in flowcell 2 and 4 is used as a reaction surface. Unmodified carboxymethyl dextran without goat anti-mouse IgG in flow cell 1 and 3 is used as the reference surface. For kinetic analysis, rate equations derived from the 1:1 Langmuir binding model are fitted simultaneously to association and dissociation phases of all eight injections (using global fit analysis) with the use of Biaevaluation 4.0.1 software. Purified antibodies or DVD-Ig are diluted in HEPES-buffered saline for capture across goat anti-mouse IgG specific reaction surfaces. Antibodies or DVD-Ig to be captured as a ligand (25 μg/ml) are injected over reaction matrices at a flow rate of 5 μl/min. The association and dissociation rate constants, kon (M^−1 s^−1) and koff (s^−1) are determined under a continuous flow rate of 25 μl/min. Rate constants are derived by making kinetic binding measurements at different antigen concentrations ranging from 10-200 nM. The equilibrium dissociation constant (M) of the reaction between antibodies or DVD-Igs and the target antigen is then calculated from the kinetic rate constants by the following formula: KD=koff/kon. Binding is recorded as a function of time and kinetic rate constants are calculated. In this assay, on-rates as fast as 10^6 M^−1 s^−1 and off-rates as slow as 10^−6 s^−1 can be measured.

[2] = PGE2-biotinamide ELISA (PGE2 binding); conditions: PGE2 VD in C-terminal position, read-out: Direct Bind ELISA C-terminal VD EC50
Protocol: (§1) Enzyme linked immunosorbent assays to screen for anti-PGE2 antibodies or anti-PGE2 containing DVD-Ig molecules that bind prostaglandin E2 were performed as follows. ELISA plates (Costar 3369, Corning, N.Y.) were coated with 50 μl of anti-host Fc IgG (Sigma, St. Louis, Mo.) at 2 μg/ml in PBS (Invitrogen Carlsbad, Calif.). Following an overnight incubation at 4° C., the plate was blocked with 200 μl Superblock (Pierce #37535, Rockford, Ill.). The IgG or DVD-Ig containing samples were diluted to 1 μg/ml in Assay Buffer (10% Superblock in PBS containing 0.05% Surfactamps (Pierce #37535, Rockford, Ill.) and incubated on the plate at 50 μl/well for 1 hour at room temperature. Following the incubation, plates were washed four times with TTBS (Tween-Tris Buffered Solution). For PGE2 binding, PGE2-biotinamide (Cayman Chemicals, Ann Arbor, Mich.) was diluted to 30 nM and serially diluted in Assay Buffer. The titration curve was added to each IgG or DVD-Ig sample at a volume of 50 μl/well and incubated for 1 hour at room temperature. The plates were washed as previously described and 50 μl/well of 1:5000 dilution of streptavidin polyhrp40 (Fitzgerald Industries, Concord, Mass.) in Assay Buffer was added and incubated for 45 minutes at room temperature. A final wash step was performed and the plates were developed using a single step TMB system (Sigma #T8665, St. Louis, Mo.) and 2N H2SO4. Plates were read at 450 nm on a Molecular Devices Spectramax plate reader (Sunnyvale, Calif.). EC50 was determined using GraphPad Prism 5 (GraphPad Software, La Jolla, Calif.) (FIG. 2).
as §1, with “ELISA” for “Enzyme linked immunosorbent assays to screen for anti-PGE2 antibodies or anti-PGE2 containing DVD-Ig molecules that bind prostaglandin E2 were performed as follows. ELISA”, “(Invitrogen,” for “(Invitrogen”, “IgG” for “IgG or DVD-Ig”, “Solution).” for “Solution). For PGE2 binding,”, “Calif.).” for “Calif.) (FIG. 2).”

[3] = Size exclusion chromatography, percent monomer of parent antibodies and DVD-Ig constructs; type: physicochemical
Protocol: Antibodies were diluted to 2.5 mg/mL with water and […] is analyzed on a Shimadzu HPLC system using a TSK gel G3000 SWXL column (Tosoh Bioscience, cat#k5539-05k). […] The HPLC system operating conditions are the following: […]

[4] = 3H-PGE2 ELISA (PGE2 binding affinity)
Protocol: Alternatively, prostaglandin binding screen for antibodies or DVD-Ig molecules can be determined using a ^3H-PGE2 ELISA. Plates were coated at 50 μl/well with 5 μg/ml of goat anti-human IgG (Fc) (Thermo Scientific #31170, Hudson, N.H.) or goat anti-mouse IgG (Fc) (Thermo Scientific #31125, Hudson, N.H.) in PBS and incubated overnight at 4° C. The following day plates were flicked and blotted dry. Plates were then blocked with 200 μL/well of Superblock (Thermo Scientific #37515, Hudson, N.H.), for 1 hour at room temperature. Plates were flicked and blotted dry. Monoclonal antibodies were diluted to 0.04 μg/ml in PBST (Abbott Bioresearch Center, Worcester, Mass.)/10% Superblock and 50 uL of each antibody or DVD-Ig was added to each well of the pre-blocked ELISA plate at 2 ng/well and incubated for 1 hour at room temperature. Wells were washed 3 times with PBS+0.1% Tween-20. A serial 3 fold titration of ^3H-PGE2 (Perkin Elmer #NET-428, Waltham, Mass.) was prepared in PBST+10% Superblock. Fifty microliters of the ^3H-PGE2 solution was then added to each well of the plate and incubated for 1 hour at room temperature. Wells were washed 6 times with PBST+10% Superblock and 50 μL of scintillation fluid (Perkin Elmer #6013621, Waltham, Mass.) added to each well. Plates were read using the TopCount reader (Perkin Elmer, Waltham, Mass.) with a 5 minutes count delay. EC50 number was determined using GraphPad Prism 5 (GraphPad Software, La Jolla, Calif.).

| EC50 [2] [pM] | Kd [4] [pM] | Molecule | EC50 ([1]; PGE2 VD in C-terminal position, EP4 bioassay, Ca++ flux, read-out: C-terminal VD PGE2 Neutralization EC50) [pM] | koff (target antigen) [s⁻¹] | % Monomer (purity) [3] [%] | IC50 [1] [pM] |
| --- | --- | --- | --- | --- | --- | --- |
| 1540 |  | DVD154: DVD-Ig construct listed in Table 4 (antibody) VH: EVQLVQSGAEVKKPGESLKISCKVSGYFFTTYWIGWVRQMPGKGLEYMGIIYPGDSDTRYSPSFQGQVTISADKSISTAYLQWSSLKASDTAMYYCARGGNWNCFDYWGQGTLVTVSSASTKGPEVQLVQSGAEVKKPGASVKVSCKASGYTFTKYWLGWVRQAPGQGLEWMGDIYPGYDYTHYNEKFKDRVTLTTDTSTSTAYMELRSLRSDDTAVYYCARSDGSSTYWGQGTLVTVSS VL: EIVLTQSPGTLSLSPGERATLSCRASQSVSSSYLAWYQQKPGQAPRLLIYGASRRATGIPDRFSGSGSGTDFTLTISRLEPEDFAVYYCQRYGSSHTFGQGTKLEISRTVAAPDVLMTQTPLSLPVTPGEPASISCTSSQNIVHSNGNTYLEWYLQKPGQSPQLLIYKVSNRFSGVPDRFSGSGSGTDFTLKISRVEAEDVGVYYCFQVSHVPYTFGGGTKVEIKR | 29 | 0.00198 | 88.7 |  |
|  | 238 | 2B5-hSL-8C11: anti-murine TNFα/anti-PGE2 DVD-Ig, human short linker, SEQ ID 106/107 (antibody) heavy: QVQLQQSGPELVRPGSSVKISCKASGYTFTKYWLGWVKQRPGHGLEWIGDIYPGYDYTHYNEKFKDKATLTVDTSSSTAYMQLSSLTSEDSAIYYCARSDGSSTYWGQGTLVTVSAASTKGPEFQLQQSGPELVKPGASVRISCKASGYSFTDYNMNWVKQSNGKSLEWVGVINPNYGSSTYNQKFKGKATLTVDQSSSTAYMQLNSLTSEDSAVYYCARKWGQLGRGFFDVWGTGTTVTVSS light: DVLMTQTPLSLPVSLGDQASISCTSSQNIVHSNGNTYLEWYLQRPGQSPKLLIYKVSNRFSGVPDRFSGSGSGTVFTLKISRVEAEDLGVYYCFQVSHVPYTFGGGTKLEIKRTVAAPQIVLSQSPAILSASPGEKVTMTCRASSSVSYMHWFQQKPGSSPKPWIYATSNLASGVPARFSGSGSGTSYSLTISRVEAEDAATYYCQQWSSSPLTFGAGTKLELKR |  |  |  | 20 |
|  | 383 | 2B5-hLL-8C11: anti-murine TNFα/anti-PGE2 DVD-Ig, human long linker, SEQ ID 108/109 (antibody) heavy: QVQLQQSGPELVRPGSSVKISCKASGYTFTKYWLGWVKQRPGHGLEWIGDIYPGYDYTHYNEKFKDKATLTVDTSSSTAYMQLSSLTSEDSAIYYCARSDGSSTYWGQGTLVTVSAASTKGPSVFPLAPEFQLQQSGPELVKPGASVRISCKASGYSFTDYNMNWVKQSNGKSLEWVGVINPNYGSSTYNQKFKGKATLTVDQSSSTAYMQLNSLTSEDSAVYYCARKWGQLGRGFFDVWGTGTTVTVSS light: DVLMTQTPLSLPVSLGDQASISCTSSQNIVHSNGNTYLEWYLQRPGQSPKLLIYKVSNRFSGVPDRFSGSGSGTVFTLKISRVEAEDLGVYYCFQVSHVPYTFGGGTKLEIKRTVAAPSVFIFPPQIVLSQSPAILSASPGEKVTMTCRASSSVSYMHWFQQKPGSSPKPWIYATSNLASGVPARFSGSGSGTSYSLTISRVEAEDAATYYCQQWSSSPLTFGAGTKLELKR |  |  |  | 64 |

— US8822645B2, “Prostaglandin E2 dual variable domain immunoglobulins and uses thereof” (AbbVie Inc., priority 2008, dated 2014)
